Where “and” joins values, the source holds several entries; their conditions need not be identical. Identical values can stand only once. No end group written: not given here.
Columns and labels:
[1] = tested on: Pneumococci (Pnc); assay: Rabbit immunization with MAP of P4: serum inhibition of adherence of Pneumococci to Detroit 562 cells (anti Pneumococcal activity); format: in vivo, Streptococcus pneumoniae
From the text: The MAPs consist of two arms, each consisting of SEQ ID NO:1 linked via lys or nle-lys to a resin.
Assessment of Serum Samples: • 1) Inhibition of adherence of P4 coated fluorescent beads to Detroit 562 cells (in vitro; tissue culture) to detect the presence of anti P4 antibodies in serum. • 2) Inhibition of adherence of PsaA coated fluorescent beads to Detroit 562 cells (in vitro; tissue culture) to detect the presence of anti PsaA antibodies in the serum. • 3) Inhibition of adherence of Pneumococci (Pnc) to Detroit 562 cells (in vitro; tissue culture) to detect the presence of anti Pnc antibodies in serum. Immunization with P4E—Analyses of Rabbit Sera for Anti P4 and Anti Pneumococcal (Pnc) Antibody: Animal 465

[2] = biological target: T1, P4 coated fluorescent beads (Streptococcus pneumoniae serotype 4, UniProt P0A4G2, D258K/D259R); assay: Rabbit immunization with MAP of P4: serum inhibition of adherence of P4 coated fluorescent beads to Detroit 562 cells (anti P4 activity); format: in vivo
T1 sequence (P0A4G2 251-278 D258K/D259R): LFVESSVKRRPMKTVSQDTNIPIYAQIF

[3] = tested on: Detroit 562 cells; assay: Adherence of rPsaA- or peptide-coated fluospheres (beads) to Detroit 562 cells; format: cell-based, human; settings: 3,100±500 fluospheres per well; 2 hour incubation
Protocol: (§1) Carboxylate-modified fluorospheres (Molecular Probes™, […]) coated with either recombinant PsaA (rPsaA) or PsaA synthetic peptide (P4) were evaluated for their adherence to Detroit 562 NP cells. Four different batches of PsaA beads were generated by varying the concentration of the protein solution used to coat the beads (0.9 mg/ml, 0.53 mg/ml, 5.3 μg/ml and 0.53 μg/ml). P4 and Glycine control beads were generated by using a peptide solution (0.9 mg/ml). Protein concentrations were confirmed by the Bradford test (Sigma). PsaA and peptide beads were compared at similar inocula (1640±210 beads per well) in adherence and adherence competition assays (measured as mean fluorescent units (FU±SE)).
Recombinant PsaA protein or synthetic peptides were covalently bound to carboxylate-modified FluoSpheres (Molecular Probes, Eugene, Oreg.) (505/515 nm range, yellow, 1 μm in diameter). […] The 2% fluosphere stock was vortexed for 2 minutes at full speed. A 250-μl aliquot was sonicated for 5 minutes to break clumps. The sonicated fluospheres were washed 3 times by centrifugation at 10,000 rpm for 10 minutes in 250 μl MES buffer, pH 6.0 (Molecular Probes). The negative charge in the carboxylate-modified fluospheres was activated by adding 50 μl of EDAC solution (100 mg/ml, Molecular Probes) to the washed fluospheres resuspended in 200 μl MES. The fluospheres were incubated for 30 minutes RT with gentle rotation. A 250-μl volume of rPsaA (1 mg/ml) or peptide (2 mg/ml) resuspended in MES buffer was added to each fluosphere pellet. Suboptimal concentrations of rPsaA (900, 530, 5.3 and 0.53 μg/ml) were also used to generate partially coated fluospheres. Peptides were dissolved as 1 mg in 50 μl of 10% acetic acid followed by addition of 450 μl of MES buffer, pH 6.0. The 500-μl fluosphere suspension was incubated in the dark over night at room temperature with horizontal rotation (150 rpm). The remaining reactive sites were blocked by addition of a 50-μl volume of 1 M solution of glycine, followed by a-30-minute incubation at room temperature with horizontal rotation. The fluosphere suspension was then washed with 500 μl PBS, 50 mM, pH 7.2-7.4 three times by centrifugation at 10,000 rpm for 10 minutes. The first supernatant of the first wash was saved for protein determinations using the microtiter microdilution method of Bradford (Bio-Rad Laboratories, Calif.). The labeled fluosphere pellet was resuspended in 500 μl of PBS, 50 mM, pH 7.2-7.4. Labeled fluospheres were stored in the dark in 100-μl aliquots at 4° C. for up to 4 months. The peptides were stored in powder form at 4° C. under Dryerite desiccant. The resuspended peptides were stored at 4° C. for 6 weeks and for long term storage at −70° C. Fluospheres were counted by limiting dilution using a fluorometer (FLX-600, BioTek) with 485/520 nm excitation/emission wavelength and comparison to a calibration curve previously generated against hemacytometer counts.
Confluent monolayers of Detroit 562 cells grown in 96-well tissue culture plates for 6 days were washed once with 130 μl/well of PBS buffer+0.5% BSA (Sigma cat #A2153, Fraction V purified by alcohol precipitation). The entire outer perimeter of the microtiter plate was not used for adherence assays due to edge effect and lack of confluent growth in these wells. An 80-μl volume per well of PBS buffer+1% BSA and 20 μl per well of diluted fluosphere suspension (to yield ˜3100±500 fluospheres in a 20-μl volume) were added to the washed monolayers. The diluted fluosphere suspension was sonicated for 3 minutes prior to addition to the center of the wells. […] The sides of the plates were then tapped gently to mix. […] Following incubation, plates were washed 5 times with 130 μL/well of PBS+0.5% BSA. The liquid was removed after each wash with a multi-channel aspirator (Costar) and moderate vacuum. The plate was allowed to dry before reading in the fluorometer (485/520 nm). […]

[4] = tested on: Detroit 562 cells; assay: Competitive inhibition of adherence of rPsaA-coated fluospheres to Detroit 562 cells; format: cell-based, human
Protocol: as §1
(§2) Homologous competitive inhibitions with 0.5 to 10 μg per well of rPsaA protein or 5 to 20 μg per well of each peptide were performed to determine the specificity of the adherence for rPsaA-coated fluospheres or for each of the three peptide-coated fluospheres. Heterologous competitive inhibitions with each peptide (10 μg per well) were performed to determine which peptide blocked the adherence of whole PsaA-coated fluospheres to the Detroit 562 cells. Absorption of PsaA-specific antibodies was performed by incubation (2 hours at ambient room temperature with rotation, 100 rpm) of 500 μl (1:8 dilution) of the serum 7051 with nitrocellulose strips (2.5×0.5 cm), previously impregnated with rPsaA protein (1.8 mg/ml) and allowed to dry at 37° C. for 1 hour. Strips were replaced every 2 hours for a total of 3 changes. All antibody absorptions were performed in PBS (10 mM, pH 7.2) supplemented with 1% (weight/volume) BSA as a non-specific blocker. Immunoglobulin G (IgG) concentrations (μg/ml) were measured as previously described (Tharpe, Romero-Steiner) after each absorption step to monitor the decline of anti-PsaA antibodies.

[5] = tested on: Detroit 562 cells; assay: Homologous competitive inhibition of adherence of rPsaA- or peptide-coated fluospheres to Detroit 562 cells; format: cell-based, human
Protocol: as §1, §2

[6] = tested on: pneumococci; settings: antibodies to the peptides; cited from earlier work
[7] = rabbit serum 1:1000, Bleed # 1 (Day 28)
[8] = rabbit serum 1:8000, Bleed # 1 (Day 28)
[9] = rabbit serum 1:8000, Bleed # 2 (Day 42)
[10] = rabbit serum 1:16000, Bleed # 1 (Day 28)
[11] = rabbit serum 1:32000, Bleed # 2 (Day 42)
[12] = rabbit serum 1:10, Bleed # 1 (Day 28)
[13] = rabbit serum 1:10, Bleed # 2 (Day 42)
[14] = rabbit serum 1:100, Bleed # 1 (Day 28)
[15] = rabbit serum 1:1000, Bleed # 2 (Day 42)
[16] = rabbit serum 1:16000, Bleed # 2 (Day 42)
[17] = rabbit serum 1:64000, Bleed # 1 (Day 28)
[18] = rabbit serum 1:64000, Bleed # 2 (Day 42)
[19] = rabbit serum 1:128000, Bleed # 1 (Day 28)
[20] = rabbit serum 1:128000, Bleed # 2 (Day 42)
[21] = rabbit serum 1:256000, Bleed # 1 (Day 28)
[22] = rabbit serum 1:256000, Bleed # 2 (Day 42)
[23] = rabbit serum 1:512000, Bleed # 1 (Day 28)
[24] = rabbit serum 1:512000, Bleed # 2 (Day 42)
[25] = rabbit serum 1:32000, Bleed # 1 (Day 28)

Substance	Anti Pneumococcal activity, % inhibition of adherence (% IA) [1, 7]	Anti Pneumococcal activity, % inhibition of adherence (% IA) [1, 8]	Anti Pneumococcal activity, % inhibition of adherence (% IA) [1, 9]	Anti P4 activity, % inhibition of adherence (% IA) [2, 12]	Anti P4 activity, % inhibition of adherence (% IA) [2, 13]	Anti P4 activity, % inhibition of adherence (% IA) [2, 14]	Anti P4 activity, % inhibition of adherence (% IA) [2, 7]	Anti P4 activity, % inhibition of adherence (% IA) [2, 15]	Anti P4 activity, % inhibition of adherence (% IA) [2, 8]	Anti P4 activity, % inhibition of adherence (% IA) [2, 9]	Anti P4 activity, % inhibition of adherence (% IA) [2, 10]	Anti P4 activity, % inhibition of adherence (% IA) [2, 16]	Anti P4 activity, % inhibition of adherence (% IA) [2, 11]	Anti P4 activity, % inhibition of adherence (% IA) [2, 17]	Anti P4 activity, % inhibition of adherence (% IA) [2, 18]	Anti P4 activity, % inhibition of adherence (% IA) [2, 19]	Anti P4 activity, % inhibition of adherence (% IA) [2, 20]	Anti P4 activity, % inhibition of adherence (% IA) [2, 21]	Anti P4 activity, % inhibition of adherence (% IA) [2, 22]	Anti P4 activity, % inhibition of adherence (% IA) [2, 23]	also measured
P4E: Multi Antigenic Peptide (MAP) of P4: two arms, each SEQ ID NO:1, linked via lys or nle-lys to a resin (chain 1 LFVESSVKRRPMKTVSQDTNIPIYAQIF; chain 2 LFVESSVKRRPMKTVSQDTNIPIYAQIF; also: MAP: two P4 arms on a Lys or Nle-Lys core)	24% and 38%	23% and 34%	13% and 21%	39% and 46%	43% and 48%	32% and 29%	33% and 41%	9% and 12%	6% and 9%	5% and 4%	12% and 15%	7% and 1%	9% and 5%	22% and 21%	6% and 3%	10% and 15%	5% and 9%	5% and 7%	0% and 3%	5% and 7%	Anti Pneumococcal activity, % inhibition of adherence (% IA) [1, 10]: 25% and 27%; Anti Pneumococcal activity, % inhibition of adherence (% IA) [1, 11]: 14% and 16%; Anti P4 activity, % inhibition of adherence (% IA) [2, 24]: 6% and 3%
LVRRFVHRRPHVE-SQ (LVRRFVHRRPHVESQ) [P3, synthetic peptide identified by phage display, reference compound]																					mean adherence of coated fluospheres (mean FU±SE) [3]: 9,780±228 FU; inhibition of rPsaA-fluosphere adherence, heterologous competition ([4]; peptide 10 μg/well): 75.2%; enhancement of the binding of rPsaA fluospheres ([4]; unsaturated fluospheres (530 μg/ml of rPsaA), data not shown): < 2.5 fold; percent reduction in adherence of homologous coated fluospheres ([5]; homologous competitor 5.0 μg/well): −7.3%; percent reduction in adherence of homologous coated fluospheres ([5]; homologous competitor 10 μg/well): 5.2%; percent reduction in adherence of homologous coated fluospheres ([5]; homologous competitor 20 μg/well): 44.2%; colonization in mice immunized with the peptides [6]: reduce colonization
P4E2: Multi Antigenic Peptide (MAP) of P4: two arms, each SEQ ID NO:1, linked via lys or nle-lys to a resin (chain 1 LFVESSVKRRPMKTVSQDTNIPIYAQIF; chain 2 LFVESSVKRRPMKTVSQDTNIPIYAQIF; not fully specified; also: MAP: two identical arms on a Lys or Nle-Lys core)	22% and 23%	19% and 21%	22% and 16%	50% and 56%	74% and 75%	0%	0%	4% and 1%	0%	1% and 2%	0%	0%	0%	0%	2% and 4%	0%	4% and 0%	0%	4% and 5%	0%	Anti Pneumococcal activity, % inhibition of adherence (% IA) [1, 15]: 33% and 20%; Anti Pneumococcal activity, % inhibition of adherence (% IA) [1, 16]: 18% and 12%; Anti Pneumococcal activity, % inhibition of adherence (% IA) [1, 25]: 0%; Anti P4 activity, % inhibition of adherence (% IA) ([2]; rabbit serum 1:100, Bleed # 2 (Day 42)): 0% and 3%; Anti P4 activity, % inhibition of adherence (% IA) [2, 25]: 0%; Anti P4 activity, % inhibition of adherence (% IA) [2, 24]: 0%

Reference: patent US7919104B2, “Functional epitopes of Streptococcus pneumoniae PsaA antigen and uses thereof” (priority 2005, dated 2011)
